For one assay, the target named is IL-11:sIL-11R complex (UniProt P20809).
The next assay concerns the target IL-6:sIL-6R complex (UniProt P05231).
Assay [1] addresses Hyper-IL-6 (Homo sapiens) (UniProt P05231). To be noted: cited from earlier work.

IL-6:sIL-6R complex, sequence (P05231 30-212, chain 1 of 2): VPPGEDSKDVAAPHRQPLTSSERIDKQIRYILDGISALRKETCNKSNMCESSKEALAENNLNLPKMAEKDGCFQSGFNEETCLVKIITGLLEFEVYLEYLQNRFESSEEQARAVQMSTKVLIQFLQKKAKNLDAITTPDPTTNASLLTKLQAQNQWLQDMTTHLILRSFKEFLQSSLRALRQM
IL-6:sIL-6R complex, sequence (P08887 20-365, chain 2 of 2, further chain): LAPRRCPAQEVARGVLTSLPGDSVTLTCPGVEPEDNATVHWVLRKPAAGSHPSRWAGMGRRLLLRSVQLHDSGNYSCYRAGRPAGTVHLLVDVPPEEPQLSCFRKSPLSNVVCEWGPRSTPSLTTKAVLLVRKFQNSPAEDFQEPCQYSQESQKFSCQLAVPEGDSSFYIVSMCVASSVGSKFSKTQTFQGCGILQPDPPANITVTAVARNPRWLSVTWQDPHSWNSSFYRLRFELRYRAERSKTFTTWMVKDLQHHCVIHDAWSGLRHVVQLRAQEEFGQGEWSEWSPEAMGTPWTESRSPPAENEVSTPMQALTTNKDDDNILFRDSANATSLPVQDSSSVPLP
sgp130Fc, sequence (P40189 23-619): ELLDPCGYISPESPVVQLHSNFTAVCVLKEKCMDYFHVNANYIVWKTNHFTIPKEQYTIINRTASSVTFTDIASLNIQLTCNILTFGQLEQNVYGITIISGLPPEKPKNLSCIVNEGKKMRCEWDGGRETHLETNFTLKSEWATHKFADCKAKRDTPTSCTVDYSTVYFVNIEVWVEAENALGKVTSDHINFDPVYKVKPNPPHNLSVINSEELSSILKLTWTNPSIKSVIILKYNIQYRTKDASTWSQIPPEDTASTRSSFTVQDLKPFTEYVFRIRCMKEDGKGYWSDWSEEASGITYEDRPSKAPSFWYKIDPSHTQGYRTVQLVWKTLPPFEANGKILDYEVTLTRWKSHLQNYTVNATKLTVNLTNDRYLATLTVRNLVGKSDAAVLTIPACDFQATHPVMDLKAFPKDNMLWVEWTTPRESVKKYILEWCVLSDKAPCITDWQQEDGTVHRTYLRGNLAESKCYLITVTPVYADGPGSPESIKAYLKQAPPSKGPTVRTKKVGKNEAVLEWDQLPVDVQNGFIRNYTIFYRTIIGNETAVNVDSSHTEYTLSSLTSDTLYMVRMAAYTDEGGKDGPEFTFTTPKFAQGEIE
IL-11:sIL-11R complex, sequence (P20809 22-199, chain 1 of 2): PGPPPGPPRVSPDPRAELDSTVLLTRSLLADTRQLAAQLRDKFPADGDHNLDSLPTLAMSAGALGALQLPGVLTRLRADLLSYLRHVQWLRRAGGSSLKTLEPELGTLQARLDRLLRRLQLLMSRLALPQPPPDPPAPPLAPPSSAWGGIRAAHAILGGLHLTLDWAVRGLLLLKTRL
IL-11:sIL-11R complex, sequence (Q14626 24-370, chain 2 of 2, further chain): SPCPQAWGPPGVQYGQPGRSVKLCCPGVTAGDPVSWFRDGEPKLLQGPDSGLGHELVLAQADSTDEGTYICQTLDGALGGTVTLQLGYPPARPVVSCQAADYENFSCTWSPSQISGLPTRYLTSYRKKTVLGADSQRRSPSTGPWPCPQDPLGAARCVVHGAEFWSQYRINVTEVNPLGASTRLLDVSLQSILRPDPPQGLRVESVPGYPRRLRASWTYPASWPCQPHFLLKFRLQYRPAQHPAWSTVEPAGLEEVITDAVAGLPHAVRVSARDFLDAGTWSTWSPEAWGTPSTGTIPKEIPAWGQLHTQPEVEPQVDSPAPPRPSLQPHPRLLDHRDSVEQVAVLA
Hyper-IL-6 (Homo sapiens), sequence (P05231 30-212, chain 1 of 2): as the sequence (P05231 30-212, chain 1 of 2) above
Hyper-IL-6 (Homo sapiens), sequence (partner, as listed by the source, chain 2 of 2): as the sequence (P08887 20-365, chain 2 of 2, further chain) above
sgp130^R281QFc, sequence (P40189 23-619 R281Q): as the sequence (P40189 23-619) above, with R259Q counted along it

As to “sgp130Fc (from UniProt P40189 23-619) (Fc fusion)”, the IC50 of inhibition of sIL-11R/IL-11 (10/100 ng/ml) induced proliferation of Ba/F3-gp130 cells (blocks the complex from membrane-bound gp130) with IL-11:sIL-11R complex was determined as 290 pM. In addition, the IC50 of inhibition of IL-6/sIL-6R (50/100 ng/ml) induced proliferation of Ba/F3-gp130 cells (blocks the complex from membrane-bound gp130) with IL-6:sIL-6R complex was 450 pM. With sgp130FlyFc ECD (from UniProt P40189), the Kd in assay [1] was 122 pM. “sgp130^R281QFc (from UniProt P40189 23-619) (Fc fusion)” yielded an IC50 of inhibition of sIL-6R/IL-6 (50/100 ng/ml) induced proliferation of Ba/F3-gp130 cells (blocks the complex from membrane-bound gp130) with IL-6:sIL-6R complex of 780 pM.

Values taken from paper PMC8649222.
